According to US20160068865:

Experiments:
[1] = tested on: ZFN 17749 (IgM) (synthetic); assay: cell_activity; settings: pair 17747/17749, CMV promoter, C6 chromosomes cleaved (about 1% with CAG); 5 of 43 rats modified
[2] = tested on: ZFN 17747 (IgM) (synthetic); assay: cell_activity; settings: pair 17747/17749, CMV promoter, C6 chromosomes cleaved (about 1% with CAG); 5 of 43 rats modified

Sequence	activity [1]	activity [2]
AGACAGGGGGCTCTC (double strand) [IgM target of 17749]	3%	
AATTTGGTGGCCATGGGC (double strand) [IgM target of 17747]		3%
